Assay results published in patent US20050209548A1, “Electroporation-mediated intravascular delivery” (priority 2004, published 2005).

Legend:
[1] = Molecular Probe, Inc.; cited from earlier work
[2] = rabbit, in vivo
Procedure: This catheter was used in the following experiment. Three rabbits weighing 4 Kg were anesthetized with xylazine (0.1 ml/kg) and ketamine (0.5 ml/1 g i.m.). General anesthesia was maintained with α-chloralose (30 mg/Kg. i.v.). […] A femoral artery in the leg on one side of the rabbit was exposed. A 5F sheath was introduced and the catheter was pushed under fluoroscopic guidance to the right or left carotid artery. […] Radiocontrast fluid was infused (panel b) allowing confirmation of the catheter position, the patient artery, the balloon and the built-in radiopaque marker, as well as presence of the dye in the side branches. After balloon inflation, (panel c) 1 ml of fluoresceinated heparin (concentration 1 mg dissolved in 2 ml: biological activity of heparin as per manufacturer: 167 U) was infused between the occluded segment via the drug port and the artery pulsed immediately with the balloons in the inflated condition. Initially, field parameters tested were ˜60V and four pulses each of ˜600 μs pulse length. […] In a subsequent experiment, voltage and pulse length were changed to 57V and 22 ms, respectively. As before, four pulses were delivered from ECM 600 pulse exponential generator. […] In addition, fluorescence due to collagen and elastin was also present.

[3] = rabbit, in vivo; remark: listed apart in the source
Procedure: Experiments were performed in 12 New Zealand white rabbits of either sex (2.5-3.4 kg) preanesthetized with xylazine (2 mg.kg^−1) and ketamine (50 mg.kg^−1) intramuscularly and an injection of alphachloralose (30 mg.kg^−1) intraveneously through an ear vein. A supplemental dose of 10 mg.kg^−1 chloralose was given every hour. The anesthetic state was maintained such that the toe-pinching reflex and corneal reflexes were absent.
Animals were placed supine and strapped on the surgical table. The trachea was intubated to allow spontaneous breathing of ambient air. Electrocardiogram (EKG) of the animal was obtained by using Lead II in differential mode. End-tidal CO2 tension was monitored by a CO2 analyzer (Datex, Puritan-Bennett). Body temperature was kept at the 38-38.5 °C range by radiant heating.
A longitudinal incision in the cervical region was made in the rabbit to expose the common carotid arteries on both sides. Approximately 6 cm in length of carotid artery on each side was isolated from the surrounding tissue and vagosympathetic nerve trunk. The caudal end of the carotid artery on one side was transiently occluded with a vascular clip at the junction between the neck and chest. A small incision was then made at the rostral end of the artery (just below transversus vein) to push an electroporator catheter (FIG. 1) through this incision. […]
Lead II EKG Nvas differentially amplified and the output was continuously monitored on an osciloscope (Tektronix) and recorded on a Gould TA-2000 thermal-array recorder for evaluation. […]
Arterial segments were subsequently freeze sectioned (10 micron) transversely. Microscopic slides containing arterial sections were observed under a Zeiss confocal laser (argon-krypton) scan microscope (LSM 410 Invert), (excitation at 495 nm and emission at 515 nm) to obtain video image (magnification 40 times) of fluorescence. Subsequently, control and test samples were compared by analyzing fluorescence intensity by Line Intensity Scan at different depths of the arterial wall using commercially obtained software (Image 1: Universal Imaging Corp.). […]

[4] = pig, in vivo; cited from earlier work

## fluoresceinated heparin [F-heparin]
[1]
  activity: 167 unit/mg
[2]
  penetration and uptake after autofluorescence correction and subtraction of control artery fluorescence: deep penetration and uptake

## heparin
[3]
  duration of sustained delivery in vessel: at least 12 hours
  location in the vessel wall: mostly present in the media but also in the intima
  washout of local delivery from vessel: completely washes out in two hours

## hirudin
[4]
  drug washed out of the vessel: 80%
  level in vessel compared with passive delivery: the level is the same as for the passive delivery
